The source of these data is patent US5932425A, “Compositions and methods for modulating cellular NF-κB activation” (Signal Pharmaceuticals, Inc., priority 1997, dated 1999).

Non-standard residues stand in square brackets, D forms with d. No end group written: not given here. pS = N[C@@H](COP(=O)(O)O)C(=O)O

The subject of assay [1] is NF-κB nuclear translocation in HeLa cells. Kind of assay: Microinjection into HeLa cells, TNFα activation, p65 nuclear staining. It counts as cell-based, human. The following applies: 5 mg/ml microinjected, TNFα 200 units/mL for 20 minutes. On the procedure: Following microinjection, cells are stimulated (e.g., with TNFα) and incubated to allow NF-κB activation. In HeLa cells, TNFα induces rapid nuclear translocation of NF-κB into the nucleus, which may be detected by staining with p65-specific antibodies. Modulating agents induce a statistically significant decrease in NF-κB translocation, and may reduce such translocation to undetectable levels.
(§1) HeLa cells were plated on a grid coverslips (Cellocate, Eppendorf) 18 hours before microinjection. Microinjection was performed with a 22 amino acid pIκBα peptide (pp21; Table I and SEQ ID NO:9) or a control phospho-Fos peptide (SEQ ID NO:10) using a semi-automated apparatus (Eppendorf). Peptides were injected into the cell cytoplasm at a concentration of 5 mg/ml in 100 mM KCl, 5 mM Na2 HPO4 (pH 7.2), and immediately activated with TNFα (200 units/mL) for either 20 minutes (for NF-κB translocation) or 3 hours (for E-selectin expression). Following activation, the cells were fixed and stained with p65 specific antibodies (Mercurio et al., Genes & Dev. 7:705, 1993; Santa Cruz) or monoclonal anti-E-selectin antibodies (R&D Systems).

The subject of assay [2] is E-selectin expression in HUVEC. Kind of assay: Microinjection into HUVEC, TNFα activation, E-selectin staining. Format: cell-based, human. The following applies: 5 mg/ml microinjected, TNFα 3 hours.
Source text: Primary human vascular endothelial cells (HUVEC) respond to TNFα stimulation by surface expression of NF-κB regulated adhesion proteins such as ICAM-1, V-CAM-1 and E-selectin (Read et al., Immunity 2:493,1995; Chen et al., J. Immunol 155:3538, 1995). E-selectin expression is particularly NF-κB dependent and is the major inducible endothelial adhesion molecule for initial neutrophil attachment and rolling on activated endothelium. Stimulated cells may be fixed and stained to detect expression of one or more NF-κB regulated adhesion proteins.
as §1, with “Systems). […]” for “Systems).”

In assay [3] the target is pIκBα ubiquitination (E3 ubiquitin ligase). The assay can be described thus: In vitro ubiquitination assay of phosphorylated, NF-κB complex-associated IκBα. It counts as biochemical, human. The conditions noted are these: complex-associated 35S-pIκBα, HeLa extract, Bestatin 40 μg/ml; read-out: IC50 of inhibition of the pIκBα ubiquitin conjugation reaction. On the procedure:
Following incubation, 1 μl of anti-p65 serum was added, and the NF-κB immune complex was immobilized to Protein A-Sepharose® and subjected to in vitro ubiquitination in HeLa cell extract as described by Alkalay et al. Ubiquitinated proteins were separated by SDS-PAGE and visualized by autoradiography.
To identify the IκBα-ubiquitin ligase recognition motif, various peptides were added at varying concentrations to the reaction mixtures in the presence of the peptidase inhibitor Bestatin (40 μg/ml). The peptides spanned the N-terminal signaling domain of the protein, and were phosphorylated at one or both serine residues (32 and 36), or were unmodified or serine-substituted. These peptides were included in the ubiquitination reaction at different concentrations and tested for inhibition of pIκBα specific ubiquitination. When conjugation of free IκBα was monitored, the translated protein was added directly to the conjugation reaction mixture.

Assay [4] deals with specific E3 ubiquitin ligase that recognises phosphorylated IκB.

Consider “CKKERLLDDRHDS*GLDS*MKDEE (CKKERLLDDRHD[pS]GLD[pS]MKDEE) [pp21]”, for which the “microinjected cells in which TNFα-stimulated NF-κB activation was abolished” value in assay [1] is 50%-70%. The “microinjected cells with inhibition of E-selectin expression” value in assay [2] is on record as 70%-80%.
One may read the IC50 as the concentration that gives 50% inhibition. On to CDS*GLDS*M (CD[pS]GLD[pS]M) [pp7], for which the 50% inhibitory concentration (IC50) in assay [3] was determined as 10 µM.
For CKKERLLDDRHD[pS]GLDSMKDEE [singly phosphorylated IκBα peptide ppS32], in assay [4], the IC50 of inhibition of the pIκBα conjugation stood at 400 µM.
As to CERLLDDRHD[pS]GLD[pS]MKDEE [doubly phosphorylated IκBα peptide pp19], the IC50 of inhibition of the pIκB conjugation reaction in assay [4] came to 5 µM.
In turn, CKKERLLDDRHDSGLD[pS]MKDEE [singly phosphorylated IκBα peptide ppS36] returned an IC50 of inhibition of the pIκBα conjugation in assay [4] of 400 µM.
In the case of CDDRHD[pS]GLD[pS]M [doubly phosphorylated IκBα peptide pp11], the IC50 of inhibition of the pIκB conjugation reaction in assay [4] is 5 µM.
Turning to CDDRHD[pS]GLD[pS]MKDEE [doubly phosphorylated IκBα peptide pp15], in assay [4], the IC50 of inhibition of the pIκB conjugation reaction worked out at 5 µM.
In assay [4], CKKERLLDDRHD[pS]GLD[pS]MKDEE [doubly phosphorylated IκBα peptide pp21] displayed an IC50 of inhibition of the pIκB conjugation reaction of 5 µM.
With CD[pS]GLD[pS]M [doubly phosphorylated IκBα peptide pp7], in assay [4], the IC50 of inhibition of pIκBα ubiquitination is 10 µM.
